# Reference: patent publication US8357523B2, “Beta-glucosidase variant enzymes and related polynucleotides” (Codexis, Inc., priority 2009, dated 2013)
# Residue numbers refer to the chain shown, from its start.
# B1: 81 (protein)
# chain: STAIAQEGAAPAAILHPRKWPRLATQRLIDPAVKKRVDALLKQLSVKEKVGQVIQGDIGTITPEDLRKYSLGSILAGGNSGPNGDDRAPPKEWLDLADAFYRVSLEKRPGHTPIPVLFGIDAVHGHGNIGSATIFPHNIALGATRDPELLRRIGEVTAVEMAATGIDWTFAPALSVVRDDRWGRTYEGFSEDPEIVAAYSAAIVEGVQGKFGSKDFMAPGRIVACAKHFLADGGTDQGRDQGDARISEDELIRIHNAGYPPAIDAGVLTVMASFSSWQGIKHHGHKQLLTDVLKGQMGFNGFIVGDWNAHDQVPGCTKFNCPTSLIAGLDMYMAADSWKQLYENTLAQVKDGTIPMARLDDAVRRILRVKVLAGLFEKPAPKDRPGLPGLETLGSPEHRAVGREAVRKSLVLLKNDKGTLPLSPKARVLVAGDGADNIGKQSGGWTISWQGTGNRNDEFPGATSILGGIRDAVADAGGSVEFDVAGQYKTKPDVAIVVFGEEPYAEFQGDVETLEYQPDQKQDLALLKKLKDQGIPVVAVFLSGRPMWVNPELNASDAFVAAWLPGTEGGGVADVLFTDKAGKVQHDFAGKLSYSWPRTAAQTTVNRGDADYNPLFAYGYGLTYKDKSKVGTLPEESGVPAEARQNAGIYFRAGALRLPGRFL
# B2: 182 (protein)
# chain: STAIAQEGAAPAAILHPEKWPRPATQRLIDPAVEKRVDALLKQLSVEEKVGQVIQGDIGTITPEDLRKYPLGSILAGGDSGPNGDDRAPPKEWLDLADAFYRVSLEKRPGHTPTPVLFGIDAVHGHGKIGSATIFPHNIALGATRDPELLRRIGEVTAQEMAATGIDWTFAPCLSVVRDDRWGRTYEGFSEDPEIVASYSAAIVEGVQGKYGSKDFMAVGRIVASAKHFLADGGTDQGRDQGDARISEDELIRIHNAGYPPAIDAGVLTVMASFSSWQGIKHHGHKQLLTDVLKGQMGFNGFIVGDWNAHDQVPGCTKFNCPTSLIAGLDMYMAADSWKQLYENTLAQVKDGTIPMARLDDAVRRILRVKVLAGLFEKPAPKDRPGLPGLETLGSPEHRAVGREAVRKSLVLLKNDKGTLPLSPKARVLVAGDGADNIGKQSGGWTISWQGTGNRNDEFPGATSILGGIRDAVADAGGSVEFDVAGQYKTKPDVAIVVFGEEPYAEFQGDVETLEYQPDQKQDLALLKKLKDQGIPVVAVFLSGRPMWVNPELNASDAFVAAWLPGTEGGGVADVLFTDKAGKVQHDFAGKLSYSWPRTAAQTTVNRGDADYNPLFAYGYGLTYKDKSKVGTLPEESGVPAEARQNAGIYFRAGALRLPGRFL
# B3: 184 (protein)
# chain: B2 chain with T114I, D146S, C173A, S198A, A201P, I280V
# B4: 186 (protein)
# chain: B2 chain with T114I, I134N, C173A, S198A, Y211F, V219P, S225C
# B5: 194 (protein)
# chain: B2 chain with T114I, K128N, A143M, Q159E, C173A, Y211F, V219P, A257P, A485P
# B6: 188 (protein)
# chain: B2 chain with T114I, D146S, Q159V, A162T, C173A, V219P
# B7: 192 (protein)
# chain: B1 chain with R18E, L23P, K34E, K47E, S70P, C225S, F274A
# B8: 191 (protein)
# chain: B1 chain with R18E, L23P, K34E, K47E, S70P, C225S, F274A, D436N
# B9: 196 (protein)
# chain: B2 chain with T114I, K128N, A143M, Q159E, C173A, Y211F, V219P, G570P, T604P
# B10: 190 (protein)
# chain: B1 chain with R18E, L23P, K34E, K47E, S70P, C225S, F274Q
# B11: 193 (protein)
# chain: B1 chain with R18E, L23P, K34E, K47E, S70P, C225S, I326S
# B12: 185 (protein)
# chain: B2 chain with D79N, T114I, K128N, C173A, V219P, I222A, S225C, P381S
# B13: 189 (protein)
# chain: B1 chain with R18E, L23P, K34E, K47E, S70P, C225S, F274K
# B14: 183 (protein)
# chain: STAIAQEGAAPAAILHPEKWPRPATQRLIDPAVEKRVDALLKQLSVEEKVGQVIQGDIGTITPEDLRKYPLGSILAGGDSGPNGDDRAPPKEWLDLADAFYRVSLEKRPGHTPIPVLFGIDAVHGHGNIGSATIFPHNIALGATRSPELLRRIGEVTAVEMTATGIDWTFAPALSVVRDDRWGRTYEGFSEDPEIVASYSAAIVEGVQGKYGSKDFMAPGRAVACAKHFLADGGTDQGRDQGDARISEDELIRIHNAGYPPAIDAGVLTVMASFSSWQGIKHHGHKQLLTDVLKGQMGFNGFIVGDWNAHGQVPGCTKFKCPTSLIAGLDMYMAADSWKQLYENTLAQVKDGTIPMAHLDDAVRRILRVKVLAGLFEKPAPKDRPGLPGLETLGSPEHRAVGREAVRKSLVLLKNDKGTLPLSPKARVLVAGDGADNIGKQSGGWTISWQGTGNRNDEFPGATSILGGIRDAVADAGGSVEFDVAGQYKTKPDVAIVVFGEEPYAEFQGDVETLEYQPDQKQDLALLKKLKDQGIPVVAVFLSGRPMWVNPELNASDAFVAAWLPGTEGGGVADVLFTDKAGKVQHDFAGKLSYSWPRTAAQTTVNRGDADYNPLFAYGYGLTYKDKSKVGTLPEESGVPAEARQNAGIYFRAGALRLPGRLL
# Test: High throughput cellobiose assay: fold improvement in cellobiase activity of CelA variants over a control enzyme (Tables 2A-2D, 3, 5, 6, 7)
# Format: biochemical
# Settings: 3.3 g/l cellobiose, 55° C. and pH 6.0
row,Molecule,Fold improvement over Control Variant No. 5 from Table 2A
1,B1,++ (++ = 1.1 to 6 fold improvement over control Variant No. 2)
2,B2,++ (++ = 1.1 to 6 fold improvement over control Variant No. 2)
3,B3,+++ (+++ = 6 to 13 fold improvement over control Variant No. 2)
4,B4,+++ (+++ = 6 to 13 fold improvement over control Variant No. 2)
5,B5,++ (++ = 1.1 to 6 fold improvement over control Variant No. 2)
6,B6,++ (++ = 1.1 to 6 fold improvement over control Variant No. 2)
7,B7,++ (++ = 1.1 to 6 fold improvement over control Variant No. 2)
8,B8,++ (++ = 1.1 to 6 fold improvement over control Variant No. 2)
9,B9,++ (++ = 1.1 to 6 fold improvement over control Variant No. 2)
10,B10,++ (++ = 1.1 to 6 fold improvement over control Variant No. 2)
11,B11,++ (++ = 1.1 to 6 fold improvement over control Variant No. 2)
12,B12,++ (++ = 1.1 to 6 fold improvement over control Variant No. 2)
13,B13,++ (++ = 1.1 to 6 fold improvement over control Variant No. 2)
14,B14,++ (++ = 1.1 to 6 fold improvement over control Variant No. 2)
